Where a chain is given by its changes, count along the chain named.
B1: 3C7 (antibody, V domains shown)
VH: QVQLVESGGGVVQPGTSLRLSCAASGFTFSSYGIHWVRQAPGKGLEWVAVIWYDGSNKFYADSVKGRFTISRDNSKNTLYLQMNSLRAEDTAVYYCARDPLGYCSSTSCSYFDYWGQGTLVTVSS
VL: DIQMTQSPSSVSASVGDRVTITCRASQGISNWLAWYQQKPGKAPKLLIYAASSLQSGVPSRFSGSGSGTDFTLTIRSLQPEDFATYYCQQANNFPLTFGGGTKVEIK
B2: 6B1 (antibody, V domains shown)
VH: B1 VH with Y60H
VL: B1 VL with R76S
B3: 6B5 (antibody, V domains shown)
VH: not shown
VL: DIQMTQSPSSLSASVGDRVTITCRASQGIRSDLGWYQQRPGKTPKRLIYAASSLQSGVPSRFSGSGSGTEFTLTISSLQPEDFATYYCQQYNSYPLTFGGGTKVEIK
B4: 5D3 (antibody, V domains shown)
VH: QVQLVQSGAEVKKPGASVKVSCKASGYTFTSYGISWVRQAPGQGLEWMGWISAYNGNTNYAQKLQGRVTMTTDTSTSTAYMELRSLRSDDTAVYYCAVGRYLDYWGQGTLVTVSS
VL: B3 VL with G28D, S31N, R39K, T43A, Q89L
B5: 3H12 (antibody, V domains shown)
VH: QVQLQESGPGLVKPSETLSLTCTVSDGSISSFYWSWIRQPPGKGLEWIGYIYYSGSTNYNPSLKSRVTISVDTSKNQFSLKLSSVTAADTAVYYCARDYDILTGYSNYYGMDVWGQGTTVTVSS
VL: B3 VL with S31N, R39K, T43A, Q89L, Y91H, L96F, G100P, V104L, E105D
B6: 5A7 (antibody, V domains shown)
VH: B4 VH
VL: B3 VL with G28D, S31N, R39K, T43A, Q89L
B7: 5E4 (antibody, V domains shown)
VH: QVHLVQSGAEVKKPGASVKVSCKASGYTFTGYYVHWVRQAPGQGLEWMGWINPNSGGTNYAQKFQGRVTMTRDTSISTAYMELSRLRSDDTAVYFCAGGRYLDYWGQGTLVTVSS
VL: B3 VL with S31N, R39K, T43A, Q89L, L96I, G100Q, K103R, V104L
B8: 6B8 (antibody, V domains shown)
VH: B4 VH
VL: B3 VL with G28D, S31N, R39K, T43A, Q89L
B9: 3A7 (antibody, V domains shown)
VH: B4 VH
VL: B3 VL with G28D, S31N, R39K, T43A, Q89L
B10: 1B5 (antibody, V domains shown)
VH: QVQLVESGGGVVQPGRSLRLSCAASGFTFSSYGMHWVRQAPGKGLEWVAVIWYDGSNKYYADSVKGRFTISRDNSKNTLYLQMNSLRAEDTAVYYCARGDFYWFDPWGQGTLVTVSS
VL: B3 VL
B11: 4G2 (antibody, V domains shown)
VH: QVQLVQSGAEVKKPGASVKVSCKASGFPFTDYYMHWVRQAPGQGLEWMGWINSNSGGTNYAQKFQGRVTMTRDTSISTAYMELSRLRSDDTAVYYCARGPHSFGSGSYPFDYWGQGTLVTVSS
VL: B3 VL
B12: 5A5 (antibody, V domains shown)
VH: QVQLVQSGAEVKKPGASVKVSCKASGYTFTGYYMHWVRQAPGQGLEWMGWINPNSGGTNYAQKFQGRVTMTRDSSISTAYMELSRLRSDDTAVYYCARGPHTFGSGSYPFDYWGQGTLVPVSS
VL: B3 VL with M4L
B13: 4A10 (antibody, V domains shown)
VH: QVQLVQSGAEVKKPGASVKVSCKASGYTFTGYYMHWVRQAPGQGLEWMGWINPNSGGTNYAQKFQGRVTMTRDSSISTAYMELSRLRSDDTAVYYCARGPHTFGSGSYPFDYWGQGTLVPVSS
VL: B3 VL with M4L
B14: 6C1 (antibody, V domains shown)
VH: B11 VH
VL: B3 VL
B15: 6C2 (antibody, V domains shown)
VH: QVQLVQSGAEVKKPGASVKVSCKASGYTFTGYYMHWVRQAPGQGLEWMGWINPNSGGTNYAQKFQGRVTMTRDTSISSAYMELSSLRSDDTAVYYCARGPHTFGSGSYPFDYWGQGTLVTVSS
VL: B3 VL with K42N
B16: 3F3 (antibody, V domains shown)
VH: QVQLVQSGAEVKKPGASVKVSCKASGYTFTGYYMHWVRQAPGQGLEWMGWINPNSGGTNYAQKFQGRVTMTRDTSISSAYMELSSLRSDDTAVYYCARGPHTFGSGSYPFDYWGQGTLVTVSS
VL: B3 VL with K42N
B17: 5D6 (antibody, V domains shown)
VH: B4 VH with S77N
VL: B3 VL with G28D, S31N, R39K, T43A, Q89L
B18: 4E2 (antibody, V domains shown)
VH: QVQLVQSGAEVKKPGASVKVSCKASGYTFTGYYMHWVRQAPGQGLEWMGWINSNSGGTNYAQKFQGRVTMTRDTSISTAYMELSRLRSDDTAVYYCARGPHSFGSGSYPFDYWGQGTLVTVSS
VL: B3 VL

These binders were tested against S protein of SARS-CoV Urbani strain (on virus) (SARS-CoV Urbani strain, UniProt P59594 14-1255) (assay: cell-based or functional assay).

Binder | Neutralizing titer 200TCID50 [µg/mL]
B1 | 12.5
B2 | 3.12
B3 | 3.12
B4 | 0.195
B5 | 3.12
B6 | 0.781
B7 | 12.5
B8 | 0.781
B9 | 0.195
B10 | 0.195
B11 | 0.781
B12 | 0.195
B13 | 3.12
B14 | 0.781
B15 | 0.781
B16 | 0.781
B17 | 0.195
B18 | 0.781
